# Experiments:
# [1] = system: His289 (position 289, DGVEVHNAKTK)
# [2] = system: His228 (position 228, SCDKTHTCPPC)
# [3] = system: His57 (position 57, TWNSGHIDYAD)
# [4] = system: His272 (position 272, VVDVSHEDPEV)
substance,measurement,setting,value
"Adalimumab (therapeutic monoclonal IgG1 kappa antibody, anti-TNF) (Homo sapiens (recombinant fully human antibody))",pKa,[1],6.2
same,pKa,[2],6.4
same,pKa,[3],6.9
same,pKa,[4],7.0

# Source: paper PMC7156388
